Source: the supplement of paper PMC9170038

System: K4 kissing-loop RNA reporter
Assay: apparent KD of K4 kissing-loop reporter; higher = weaker reporter binding
Conditions: Eterna round: R107
Description: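 RNA-MaP round R107: designed RNA switches with theophylline, tryptophan, arginine or FMN aptamers are transcribed on-chip within common flanks. They are titrated with a labelled K4 kissing-loop RNA reporter in RNA-MaP buffer (100 mM Tris pH 7.5, 80 mM KCl, 4 mM MgCl2), without ligand or with the indicated ligand. Median apparent KD per design.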

[1] = input ligand: theophylline 20 uM
[2] = input ligand: tryptophan 2.4 mM
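Further: bound reporter read as fluorescence of individual clusters on recovered sequencing chips by microscopy, with normalized cluster intensities fitted with a binding model.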

Sequence	apparent KD of K4 kissing-loop reporter (input ligand: FMN 200 uM) [nM]	apparent KD of K4 kissing-loop reporter (input ligand: arginine 13.2 mM) [nM]	apparent KD of K4 kissing-loop reporter (input ligand: none) [nM]	apparent KD of K4 kissing-loop reporter [1] [nM]	apparent KD of K4 kissing-loop reporter [2] [nM]
CCCUCACGAGUGAUGUUCGUAGGGUACAGUCAGGAUAUCAUGCGGUUGAGAAGGGACAGAGAGGGCGGCCACUGGUUGCUCUUCU [Tiatesqu]	150	249	235	418	200
UUGACCAAAUUCCGGUGAUCAUCGCCGCCGCGAGGACCGGUACGGCCGCCACUCGUCCCUAUGCUCGGAGUAGUGAUGUUAUUCA [theeternabot_sameState_KL_Trp_A_43]	557	197	529	280	574
GGAUGGUAGGCGGCCGCCACUAAAAGUGAACACAUACAAGCCAGUGAUGUUGGUAUGAUGGACUAUAGGACCGGGCCUAGAUAGA [Exclusion - Tryptophan B (Freestyle 6)]	468	410	522	454	466
AACGCUCAAUAGAGAGUGAUGUUCUCUAUACGAGGACCGGUACGGCCGCCACUCGAAUGUAUAGCGAAACGCUAUACACAGUGGU [Tryp A SS t2]	155	147	152	146	150
GGCAUCCAUGGACAUAGUGAUGUUAUGUGCCGAGGACCGGUACGGCCGCCACUCGACCAUGGAUGCCGCAAUCGGAAACGAUUGC	1090	915	1610	888	115
UCCUGCAAUCUGCCACGAAAGUGGAUUGAUACCAGAGUCGAAAGACUCCCUUGGCAGCGAGUGAUGUUCGUAGCAGGUAAAUAAA [MatMod 6 - Jieux - Exclusion - Theophylline A]	203	221	206	218	185
UGACAUUGCUCAGAUACCAGACCUGAGGAUCACCCUGGUGCCAAACGUACAAUAAUAAAUGUCCCUUGGCAGCUGAGCAAUGUCU [TheoBX 14]	77.8	27.6	44.9	139	52.4
GUAUCGCUAGGAGGAUAUUUCAAAUAAUAAAUAAAUGGAUAUUCGGAGUGAUGUUCCGAUUUACGGAAAGAAGGCCUAGUGAUAC [FMN B 2]	135	143	157	137	150
AAAGAAGUAUACUUCAAGAGGUAUGCUGAUACCAGAGUCAAUUGACUCCCUUGGCAGCGGAUCGAGUGAUGUUCGUAACCUCAAA [AK3 SS Theophylline A]	118	178	153	192	117
GUCGGGACUCGAGGAUAUCAGUGGAGGCCAGUGAUGUUGGCCGUCCCGGUAGUUAAAAUUUUACCCUGAGAAGGCGAUUUCUGUC [Veceinusqu]	142	128	133	131	138
GCGUGCCAUGCAGGAUAUAGUUGUUCGAGUGAUGUUCGAGCCUUGCUAAGUUCGGAGCAUCAGCUUCUAGAAGGGCAUGGCACGC	156	205	618	241	347
UCCUAUACCCUUCCCGGACGCCGUGGAGAUACCAGCCACGUAGCGGGCCCUUGGCAGCUCGAGUGAUGUUCGAGAUCGUCAGGAU [Veteve]	136	124	127	128	135
GCCGUACGCAUGGAUACCAGCAUUUAUGACACACUGCUAGUGAUGUUAGCUAUGCGUAUAUGCCCUUGGCAGCCAUGCGUACGGC	150	128	140	87.4	133
CCCUCACGAGUGAUGUUCGUAGGGUACAGUCAGGAUAUCAUGCGGUUGAGAAGGGACAGAGAGGGCGGCGGCGGGUUGCUCCUCU [Beeded]	290	240	281	711	495
UAAUUUAUGUCUUUAAUAUAAUUUUCAGAUACCAGUGAUUAUUAACACCCUUGGCAGCUGUAUAGAGUGAUGUUCUUAUGCUUAA [JR_ExcTheophyA_Sub009]	213	314	237	321	156
CGUUCCUCUGUCGAUACCAGCUUCAGUUGGCGGCCAGUGAUGUUGGUAUCGCCGAUGCCAAGCCCUUGGCAGCGACAUGAGAACC [Uslaessobi]	200	166	166	105	172
CCGGGCGGCCGAAGGAGCGGGCGGACCCGAGUGAUGUUCGGGUGGCCCGUGAGGGCCGGUGCCCAGGUAGGUCGCGGAUCCGCCC [#2 Same State - Arginine B Attempt #3 (HarryS)]	155	120	140	116	135
UAAGAAUAAGUAGCAGUGAUGUUGCUACUGCGAGGACCGGUACGGCCGCCACUCGAGUCCUCGAAGCGUCACUGAACGAGGAAUA [whbob_SS_Tryp_A_m13]	319	283	328	433	187
